Measurements taken from US20070141625A1 (published 2007).

Target: T1, protein C (PC) (UniProt P04070 43-461)
T1 construct: Commercial PC
Assay: inhibition by rhsEPCR 2 µM of PC activation by thrombin on EA.hy926 endothelial cells; Ki derived from the shift of Km
Protocol: Proc Natl Acad Sci USA. 1996; 93:10212-6). 5×10⁴ cells/well were incubated in a 96-well plate with 0.02 U/ml of thrombin (0.17 nM) (ERL, Swansea, United Kingdom) and growing concentrations of PC (Baxter, Deerfield, Ill., USA) between 50 and 1000 nM in Tris 20 mM buffer, pH 7.4, supplemented with NaCl 150 mM, CaCl₂ 5 mM, MgCl₂ 0.6 mM, 1% BSA, 0.001% Tween-20 and 0.02% NaN₃. After 45 minutes at room temperature, lepirudin was added (Schering A G, Berlin, Germany) at an end concentration of 0.2 μmol/L, to inhibit thrombin; 3-4 minutes later, chromogenic substrate S-2366 was added (Chromogenix, Milan, Italy) at an end concentration of 0.4 mM with the purpose of monitoring its proteolysis by APC. The increase in absorbance at 405 nm was recorded kinetically with a microplate reader (iEMS REader, Labsystems, Finland). Curve data fitting to the Michaelis-Menten equation was carried out using the Enzfitter program (Biosoft, Cambridge, United Kingdom), which calculated the Km of PC activation under those conditions. Where necessary, 45 μg/ml of purified anti-EPCR autoantibodies from patients (see below) were added simultaneously with the thrombin and PC. Thus, the effect of the anti-EPCR autoantibodies upon PC activation could be analyzed. […]

T1 sequence (P04070 43-461): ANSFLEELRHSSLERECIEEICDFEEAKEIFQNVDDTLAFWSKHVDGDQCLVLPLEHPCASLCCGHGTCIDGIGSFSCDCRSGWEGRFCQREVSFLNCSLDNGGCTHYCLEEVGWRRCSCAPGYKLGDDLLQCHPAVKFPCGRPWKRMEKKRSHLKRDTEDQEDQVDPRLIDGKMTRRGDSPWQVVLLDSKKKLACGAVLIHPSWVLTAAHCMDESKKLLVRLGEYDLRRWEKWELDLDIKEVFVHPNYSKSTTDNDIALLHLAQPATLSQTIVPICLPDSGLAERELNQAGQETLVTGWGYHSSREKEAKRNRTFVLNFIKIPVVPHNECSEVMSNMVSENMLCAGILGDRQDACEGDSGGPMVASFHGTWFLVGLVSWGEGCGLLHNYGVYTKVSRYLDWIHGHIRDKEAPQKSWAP

B1: recombinant human soluble EPCR (rhsEPCR) (receptor)
chain: SISQDASDGLQRLHMLQISYFRDPYHVWYQGNASLGGHLTHVLEGPDTNTTIIQLQPLQEPESWARTQSGLQSYLLQFHGLVRLVHQERTLAFPLTIRCFLGCELPPEGSRAHVFFEVAVNGSSFVSFRPERALWQADTQVTSGVVTFTLQQLNAYNRTRYELREFLEDTCVQYVQKHISAENTKGSQTSRSYTSAAASFLEQKLISEEDLNSAVDHHHHHH
notes: also called recombinant sEPCR; human recombinant EPCR in soluble form
B1 was tested, and the Ki was about 70 nM.
